Source: the supplement of paper PMC10567573

B1: INTS3 (parent)
chain: EEITEESLEESVGKPLYLIFRNLC

Variants of: B1
Test: protein stability index of a GFP-peptide fusion (GPS, HEK-293T) (PSI 1-6); higher = more stable
Details: c terminus: a fixed tail appended
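Also: lentivirally expressed fusions sorted by FACS into six bins by GFP to DsRed ratio, PSI derived from sequencing read proportions per bin multiplied by bin number.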

Variant | protein stability index
EEITEESLEESVGKPLYLIDRNLC | 4.48
EEITEESLEESVGKPLYLIWRNLC | 2.35
EEITEESLEESVGKPLYLIRRNLC | 4.23
EEITEESLEESVGKPLYLIGRNLC | 4.07
EEITEESLEESVGKPLYLIKRNLC | 4.46
EEITEESLEESVGKPLYLIHRNLC | 3.46
EEITEESLEESVGKPLYLIMRNLC | 3.1
EEITEESLEESVGKPLYLIQRNLC | 3.97
EEITEESLEESVGKPLYLISRNLC | 3.77
EEITEESLEESVGKPLYLIPRNLC | 4.07
EEITEESLEESVGKPLYLIIRNLC | 2.88
EEITEESLEESVGKPLYLILRNLC | 2.37
EEITEESLEESVGKPLYLIVRNLC | 2.55
EEITEESLEESVGKPLYLITRNLC | 3.6
EEITEESLEESVGKPLYLIARNLC | 2.82
EEITEESLEESVGKPLYLIERNLC | 3.53
EEITEESLEESVGKPLYLICRNLC | 3.32
EEITEESLEESVGKPLYLINRNLC | 4.33
EEITEESLEESVGKPLYLIYRNLC | 2.71
EEITEESLEESVGTPLYLIFRNLC | 3.38
EEITEESLEESVGRPLYLIFRNLC | 3.31
EEITEESLEESVGWPLYLIFRNLC | 2.39
EEITEESLEESVGSPLYLIFRNLC | 2.94
EEITEESLEESVGVPLYLIFRNLC | 2.6

Variant | protein stability index
EEITEESLEESVGYPLYLIFRNLC | 2.47
EEITEESLEESVGKPLYDIFRNLC | 3.35
EEITEESLEESVGKPLYGIFRNLC | 3.71
EEITEESLEESVGKPLYVIFRNLC | 2.7
EEITEESLEESVGKPLYHIFRNLC | 3.4
EEITEESLEESVGKPLYSIFRNLC | 3.37
EEITEESLEESVGKPLYWIFRNLC | 2.16
EEITEESLEESVGKPLYMIFRNLC | 3.38
EEITEESLEESVGKPLYAIFRNLC | 2.92
EEITEESLEESVGKPLYRIFRNLC | 2.82
EEITEESLEESVGKPLYFIFRNLC | 2.3
EEITEESLEESVGKPLYCIFRNLC | 2.7
EEITEESLEESVGKPLYTIFRNLC | 3.37
EEITEESLEESVGKPLYYIFRNLC | 2.93
EEITEESLEESVGKPLYIIFRNLC | 2.72
EEITEESLEESVGKPLYQIFRNLC | 3.21
EEITEESLEESVGKPLYNIFRNLC | 3.38
EEITEESLEESVGKPLYPIFRNLC | 3.69
EEITEESLEESVGKPLYEIFRNLC | 3.12
EEITEESLEESVGKPLYKIFRNLC | 3.1
EEITEESLEESVGKPLYLIFANLC | 2.77
EEITEESLEESVGKPLYLIFTNLC | 2.61
EEITEESLEESVGKPLYLIFNNLC | 2.96
EEITEESLEESVGKPLYLIFDNLC | 3.46

Variant | protein stability index
EEITEESLEESVGKPLYLIFGNLC | 3.1
EEITEESLEESVGKPLYLIFINLC | 1.63
EEITEESLEESVGKPLYLIFQNLC | 2.77
EEITEESLEESVGKPLYLIFMNLC | 2.1
EEITEESLEESVGKPLYLIFWNLC | 2.1
EEITEESLEESVGKPLYLIFENLC | 2.64
EEITEESLEESVGKPLYLIFPNLC | 3.53
EEITEESLEESVGKPLYLIFLNLC | 1.9
EEITEESLEESVGKPLYLIFCNLC | 2.62
EEITEESLEESVGKPLYLIFFNLC | 2.03
EEITEESLEESVGKPLYLIFHNLC | 3.08
EEITEESLEESVGKPLYLIFSNLC | 2.95
EEITEESLEESVGKPLYLIFKNLC | 2.61
EEITEESLEESVGKPLYLIFYNLC | 2.03
EEITEESLEESVGKPLYLIFVNLC | 2.09
EEITEESLEESVGKPLYLIFRNLL | 2.16
EEITEESLEESVGKPLYLIFRNLK | 3.11
EEITEESLEESVGKPLYLIFRNLE | 3.54
EEITEESLEESVGKPLYLIFRNLN | 3.33
EEITEESLEESVGKPLYLIFRNLI | 2.32
EEITEESLEESVGKPLYLIFRNLH | 2.88
EEITEESLEESVGKPLYLIFRNLG | 2.54
EEITEESLEESVGKPLYLIFRNLM | 2.7
EEITEESLEESVGKPLYLIFRNLF | 2.99

Variant | protein stability index
EEITEESLEESVGKPLYLIFRNLD | 3.48
EEITEESLEESVGKPLYLIFRNLA | 2.87
EEITEESLEESVGKPLYLIFRNAC | 3.74
EEITEESLEESVGKPLYLIFRNKC | 4.52
EEITEESLEESVGKPLYLIFRNIC | 2.63
EEITEESLEESVGKPLYLIFRNRC | 3.47
EEITEESLEESVGKPLYLIFRNEC | 3.98
EEITEESLEESVGKPLYLIFRNQC | 4.17
EEITEESLEESVGKPLYLIFRNVC | 3.39
EEITEESLEESVGKPLYLIFRNWC | 2.85
EEITEESLEESVGKPLYLIFRNGC | 3.62
EEITEESLEESVGKPLYLIFRNYC | 2.68
EEITEESLEESVGKPLYLIFRNHC | 3.19
EEITEESLEESVGKPLYLIFRNPC | 3.82
EEITEESLEESVGKPLYLIFRNFC | 3.14
EEITEESLEESVGKPLYLIFRNMC | 2.74
EEITEESLEESVGKPLYLIFRNSC | 3.67
EEITEESLEESVGKPLYLIFRNCC | 3.54
EEITEESLEESVGKPLYLIFRNTC | 3.4
EEITEESLEESVGKPLYLIFRNNC | 3.47
EEITEESLEESVGKPLYLIFRNDC | 3.75
EEITEESLEESVGKPLYLLFRNLC | 2.86
